According to patent US20260167710A1:

Assays:
ST2-his (human) [1] = molecular target: ST2-his (human) (UniProt Q01638); experiment: BLI (Octet RED384), ST2-his on anti-his sensors, IL-33 100 nM, steady state fit, average of n=2; not at equilibrium, for comparison only
ST2-his (human) [2] = molecular target: ST2-his (human) (UniProt Q01638); experiment: BLI (Octet RED384), ST2-his on anti-his sensors, IL-33 pre-mixed with the anti IL-33 control antibody (the complex binds ST2), steady state fit, average of n=2
ST2-his (human) [3] = molecular target: ST2-his (human) (UniProt Q01638); experiment: BLI (Octet RED384), ST2-his on anti-his sensors, IL-33 pre-mixed with ten-fold excess of 22A06-458 (the complex binds ST2), steady state fit, average of n=2

ST2-his (human), sequence (Q01638 other isoform, or with tags, fused parts or gaps limits assumed): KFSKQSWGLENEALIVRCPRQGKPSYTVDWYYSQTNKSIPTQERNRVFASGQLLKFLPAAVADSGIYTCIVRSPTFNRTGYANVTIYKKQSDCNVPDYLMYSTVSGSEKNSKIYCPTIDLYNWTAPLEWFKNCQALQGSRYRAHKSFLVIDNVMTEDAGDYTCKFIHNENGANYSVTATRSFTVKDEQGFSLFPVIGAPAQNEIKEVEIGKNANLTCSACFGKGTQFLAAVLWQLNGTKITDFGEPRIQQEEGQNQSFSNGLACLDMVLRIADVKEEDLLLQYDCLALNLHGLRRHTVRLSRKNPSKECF

B1: human IL-33 (ligand, not shown: small tags and cut ends)
chain: ITGISPITEYLASLSTYNDQSITFALEDESYEIYVEDLKKDEKKDKVLLSYYESQHPSNESGDGVDGKMLMVTLSPTKDFWLHANNKEHSVELHKCEKPLPDQAFFVLHNMHSNCVSFECKTDPGVFIGVKDNHLALIKVDSSENLCTENILFKLSET
modifications: Biotinylated in Example 2; the site is not stated.
- Kd (ST2-his (human) [1]): 7.2 nM
- Kd (ST2-his (human) [2]): 2.4 nM
- Kd (ST2-his (human) [3]): 11.5 nM
